Results: patent US20210221867A1 (Novo Nordisk, published 2021)
Positions of bridges follow the written chain, without caps; N, C: chain ends. Non-standard residues stand in square brackets, D forms with d. dPhe(4-Cl) = N[C@H](Cc1ccc(Cl)cc1)C(=O)O; dPhe(4-Me) = Cc1ccc(C[C@@H](N)C(=O)O)cc1; dPhe(4-F) = N[C@H](Cc1ccc(F)cc1)C(=O)O; Nle = CCCC[C@H](N)C(=O)O; Thz = O=C(O)[C@@H]1CSCN1; Aib = CC(C)(N)C(=O)O

Key:
human MC1 receptor [1] = target: T1, human MC1 receptor (human, UniProt Q01726 1-317); assay: SPA competition binding, displacement of 125I-NDP-α-MSH, BHK membranes with human MC1R
T1 construct: whole, on cells; cAMP assay used whole BHK cells; also called melanocortin 1 receptor
T1 sequence (Q01726 whole entry): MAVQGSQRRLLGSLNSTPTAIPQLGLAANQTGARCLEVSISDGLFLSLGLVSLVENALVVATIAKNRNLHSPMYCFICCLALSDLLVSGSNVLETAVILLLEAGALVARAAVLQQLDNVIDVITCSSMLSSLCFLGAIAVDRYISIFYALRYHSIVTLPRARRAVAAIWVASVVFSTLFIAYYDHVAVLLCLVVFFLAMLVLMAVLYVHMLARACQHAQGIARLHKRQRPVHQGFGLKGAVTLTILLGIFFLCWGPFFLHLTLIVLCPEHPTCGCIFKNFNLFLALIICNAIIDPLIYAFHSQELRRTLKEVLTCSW
Protocol: (§1) The SPA Binding assay was performed in 96-well white opaque plates. Each well contained: 0.5 mg PVT-WGA SPA beads, MC1 receptor expressing membrane diluted to give approximately 10% specific tracer binding, 50.000 dpm ¹²⁵I-NDP-α-MSH and relevant dilutions of test compound. The final volume in each well was 200 μl. […] Plates were incubated overnight (22-24 hours) at room temperature before counting for 2 minutes per well, using a TopCount NXT scintillation counter. Displacement of radio ligand is measured as reduction in light emission from SPA beads, and IC₅₀ values are calculated by nonlinear regression analysis of sigmoidal dose-response curves in GraphPad Prism (GraphPad Software, La Jolla, Calif., USA).

human MC4 receptor [2] = target: T2, human MC4 receptor (human, UniProt P32245 1-332); assay: cell-based or functional assay
T2 sequence (P32245 whole entry): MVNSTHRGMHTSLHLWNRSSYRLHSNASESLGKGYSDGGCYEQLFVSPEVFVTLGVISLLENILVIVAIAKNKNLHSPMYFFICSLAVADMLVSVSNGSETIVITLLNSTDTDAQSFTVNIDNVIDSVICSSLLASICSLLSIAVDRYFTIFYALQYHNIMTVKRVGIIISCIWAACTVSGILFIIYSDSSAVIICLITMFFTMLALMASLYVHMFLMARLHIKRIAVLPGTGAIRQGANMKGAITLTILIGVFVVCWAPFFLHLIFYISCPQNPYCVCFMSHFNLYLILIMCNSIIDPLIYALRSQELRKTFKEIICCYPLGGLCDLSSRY

human MC1 receptor [3] = target: T1, human MC1 receptor; assay: cell-based or functional assay
human MC4 receptor [4] = target: T2, human MC4 receptor; assay: SPA competition binding, displacement of 125I-NDP-α-MSH, BHK membranes with human MC4R
Protocol: as §1, with “MC4” for “MC1”

Binder	IC50 (human MC1 receptor [1]) [nM]	MC4R cAMP EC50 (human MC4 receptor [2]) [nM]	MC1R cAMP EC50 (human MC1 receptor [3]) [nM]	IC50 (human MC4 receptor [4]) [nM]
Ac-CPH[dF]HWCPP[dR]E[Nle][dR]R-NH2 (disulfide 1-7; SMILES CCCC[C@H](NC(=O)[C@H](CCC(=O)O)NC(=O)[C@@H](CCCNC(=N)N)NC(=O)[C@@H]1CCCN1C(=O)[C@@H]1CCCN1C(=O)[C@@H]1CSSC[C@H](NC(C)=O)C(=O)N2CCC[C@H]2C(=O)N[C@@H](Cc2c[nH]cn2)C(=O)N[C@H](Cc2ccccc2)C(=O)N[C@@H](Cc2c[nH]cn2)C(=O)N[C@@H](Cc2c[nH]c3ccccc23)C(=O)N1)C(=O)N[C@H](CCCNC(=N)N)C(=O)N[C@@H](CCCNC(=N)N)C(N)=O, Synthetic cyclic peptide; also called Chem. 14) [Ac-c[Cys-Pro-His-D-Phe-His-Trp-Cys]-Pro-Pro-D-Arg-Glu-Nle-D-Arg-Arg-NH2]	443	1.39	1160	0.86
Ac-RCPH[dF]HWCPP[dR]E[Nle]K-NH2 (disulfide 2-8; SMILES CCCC[C@H](NC(=O)[C@H](CCC(=O)O)NC(=O)[C@@H](CCCNC(=N)N)NC(=O)[C@@H]1CCCN1C(=O)[C@@H]1CCCN1C(=O)[C@@H]1CSSC[C@H](NC(=O)[C@H](CCCNC(=N)N)NC(C)=O)C(=O)N2CCC[C@H]2C(=O)N[C@@H](Cc2c[nH]cn2)C(=O)N[C@H](Cc2ccccc2)C(=O)N[C@@H](Cc2c[nH]cn2)C(=O)N[C@@H](Cc2c[nH]c3ccccc23)C(=O)N1)C(=O)N[C@@H](CCCCN)C(N)=O, Synthetic cyclic peptide; also called Chem. 2) [Ac-Arg-c[Cys-Pro-His-D-Phe-His-Trp-Cys]-Pro-Pro-D-Arg-Glu-Nle-Lys-NH2]	144	1.17	288	0.71
Ac-CPH[dF]HWCPP[dR]E[Nle]RR-NH2 (disulfide 1-7; SMILES CCCC[C@H](NC(=O)[C@H](CCC(=O)O)NC(=O)[C@@H](CCCNC(=N)N)NC(=O)[C@@H]1CCCN1C(=O)[C@@H]1CCCN1C(=O)[C@@H]1CSSC[C@H](NC(C)=O)C(=O)N2CCC[C@H]2C(=O)N[C@@H](Cc2c[nH]cn2)C(=O)N[C@H](Cc2ccccc2)C(=O)N[C@@H](Cc2c[nH]cn2)C(=O)N[C@@H](Cc2c[nH]c3ccccc23)C(=O)N1)C(=O)N[C@@H](CCCNC(=N)N)C(=O)N[C@@H](CCCNC(=N)N)C(N)=O, Synthetic cyclic peptide; also called Chem. 3) [Ac-c[Cys-Pro-His-D-Phe-His-Trp-Cys]-Pro-Pro-D-Arg-Glu-Nle-Arg-Arg-NH2]	511	1.4	778	1.03
Ac-[dR]CPH[dF]HWCPP[dR]E[Nle]-NH2 (disulfide 2-8; SMILES CCCC[C@H](NC(=O)[C@H](CCC(=O)O)NC(=O)[C@@H](CCCNC(=N)N)NC(=O)[C@@H]1CCCN1C(=O)[C@@H]1CCCN1C(=O)[C@@H]1CSSC[C@H](NC(=O)[C@@H](CCCNC(=N)N)NC(C)=O)C(=O)N2CCC[C@H]2C(=O)N[C@@H](Cc2c[nH]cn2)C(=O)N[C@H](Cc2ccccc2)C(=O)N[C@@H](Cc2c[nH]cn2)C(=O)N[C@@H](Cc2c[nH]c3ccccc23)C(=O)N1)C(N)=O, Synthetic cyclic peptide; also called Chem. 7) [Ac-D-Arg-c[Cys-Pro-His-D-Phe-His-Trp-Cys]-Pro-Pro-D-Arg-Glu-Nle-NH2]	816	2.72	649	6.31

Further binders by falling IC50 (human MC1 receptor [1]), results first:

IC50 (human MC1 receptor [1]) [nM]	MC4R cAMP EC50 (human MC4 receptor [2]) [nM]	MC1R cAMP EC50 (human MC1 receptor [3]) [nM]	IC50 (human MC4 receptor [4]) [nM]	Binder
374	1.51		1.47	Ac-RCPH[dF]HWCPP[dR]E[Nle]-NH2 (disulfide 2-8; SMILES CCCC[C@H](NC(=O)[C@H](CCC(=O)O)NC(=O)[C@@H](CCCNC(=N)N)NC(=O)[C@@H]1CCCN1C(=O)[C@@H]1CCCN1C(=O)[C@@H]1CSSC[C@H](NC(=O)[C@H](CCCNC(=N)N)NC(C)=O)C(=O)N2CCC[C@H]2C(=O)N[C@@H](Cc2c[nH]cn2)C(=O)N[C@H](Cc2ccccc2)C(=O)N[C@@H](Cc2c[nH]cn2)C(=O)N[C@@H](Cc2c[nH]c3ccccc23)C(=O)N1)C(N)=O, Synthetic cyclic peptide; also called Chem. 1) [Ac-Arg-c[Cys-Pro-His-D-Phe-His-Trp-Cys]-Pro-Pro-D-Arg-Glu-Nle-NH2]
290	2.15	601	0.88	Ac-CPH[dPhe(4-Me)]HWCPP[dR]E[Nle][dR][dR]-NH2 (disulfide 1-7; SMILES CCCC[C@H](NC(=O)[C@H](CCC(=O)O)NC(=O)[C@@H](CCCNC(=N)N)NC(=O)[C@@H]1CCCN1C(=O)[C@@H]1CCCN1C(=O)[C@@H]1CSSC[C@H](NC(C)=O)C(=O)N2CCC[C@H]2C(=O)N[C@@H](Cc2c[nH]cn2)C(=O)N[C@H](Cc2ccc(C)cc2)C(=O)N[C@@H](Cc2c[nH]cn2)C(=O)N[C@@H](Cc2c[nH]c3ccccc23)C(=O)N1)C(=O)N[C@H](CCCNC(=N)N)C(=O)N[C@H](CCCNC(=N)N)C(N)=O, Synthetic cyclic peptide; also called Chem. 9) [Ac-c[Cys-Pro-His-D-MePhe-His-Trp-Cys]-Pro-Pro-D-Arg-Glu-Nle-D-Arg-D-Arg-NH2]
262	0.25	888	0.46	Ac-C[Thz]H[dPhe(4-F)]HWCPP[dR]E[Nle]RR-NH2 (disulfide 1-7; SMILES CCCC[C@H](NC(=O)[C@H](CCC(=O)O)NC(=O)[C@@H](CCCNC(=N)N)NC(=O)[C@@H]1CCCN1C(=O)[C@@H]1CCCN1C(=O)[C@@H]1CSSC[C@H](NC(C)=O)C(=O)N2CSC[C@H]2C(=O)N[C@@H](Cc2c[nH]cn2)C(=O)N[C@H](Cc2ccc(F)cc2)C(=O)N[C@@H](Cc2c[nH]cn2)C(=O)N[C@@H](Cc2c[nH]c3ccccc23)C(=O)N1)C(=O)N[C@@H](CCCNC(=N)N)C(=O)N[C@@H](CCCNC(=N)N)C(N)=O, Synthetic cyclic peptide; also called Chem. 17) [Ac-c[Cys-THAZ-His-D-F-Phe-His-Trp-Cys]-Pro-Pro-D-Arg-Glu-Nle-Arg-Arg-NH2]
235	0.24	801	0.45	Ac-C[Thz]H[dF]HWCPP[dR]E[Nle][dR][dR]-NH2 (disulfide 1-7; SMILES CCCC[C@H](NC(=O)[C@H](CCC(=O)O)NC(=O)[C@@H](CCCNC(=N)N)NC(=O)[C@@H]1CCCN1C(=O)[C@@H]1CCCN1C(=O)[C@@H]1CSSC[C@H](NC(C)=O)C(=O)N2CSC[C@H]2C(=O)N[C@@H](Cc2c[nH]cn2)C(=O)N[C@H](Cc2ccccc2)C(=O)N[C@@H](Cc2c[nH]cn2)C(=O)N[C@@H](Cc2c[nH]c3ccccc23)C(=O)N1)C(=O)N[C@H](CCCNC(=N)N)C(=O)N[C@H](CCCNC(=N)N)C(N)=O, Synthetic cyclic peptide; also called Chem. 12) [Ac-c[Cys-THAZ-His-D-Phe-His-Trp-Cys]-Pro-Pro-D-Arg-Glu-Nle-D-Arg-D-Arg-NH2]
214	0.33	456	0.44	Ac-C[Aib]H[dF]HWCPP[dR]E[Nle][dR][dR]-NH2 (disulfide 1-7; SMILES CCCC[C@H](NC(=O)[C@H](CCC(=O)O)NC(=O)[C@@H](CCCNC(=N)N)NC(=O)[C@@H]1CCCN1C(=O)[C@@H]1CCCN1C(=O)[C@@H]1CSSC[C@H](NC(C)=O)C(=O)NC(C)(C)C(=O)N[C@@H](Cc2c[nH]cn2)C(=O)N[C@H](Cc2ccccc2)C(=O)N[C@@H](Cc2c[nH]cn2)C(=O)N[C@@H](Cc2c[nH]c3ccccc23)C(=O)N1)C(=O)N[C@H](CCCNC(=N)N)C(=O)N[C@H](CCCNC(=N)N)C(N)=O, Synthetic cyclic peptide; also called Chem. 13) [Ac-c[Cys-Aib-His-D-Phe-His-Trp-Cys]-Pro-Pro-D-Arg-Glu-Nle-D-Arg-D-Arg-NH2]
172	0.43		0.28	Ac-CPH[dPhe(4-Cl)]HWCPP[dR]E[Nle][dR][dR]-NH2 (disulfide 1-7; SMILES CCCC[C@H](NC(=O)[C@H](CCC(=O)O)NC(=O)[C@@H](CCCNC(=N)N)NC(=O)[C@@H]1CCCN1C(=O)[C@@H]1CCCN1C(=O)[C@@H]1CSSC[C@H](NC(C)=O)C(=O)N2CCC[C@H]2C(=O)N[C@@H](Cc2c[nH]cn2)C(=O)N[C@H](Cc2ccc(Cl)cc2)C(=O)N[C@@H](Cc2c[nH]cn2)C(=O)N[C@@H](Cc2c[nH]c3ccccc23)C(=O)N1)C(=O)N[C@H](CCCNC(=N)N)C(=O)N[C@H](CCCNC(=N)N)C(N)=O, Synthetic cyclic peptide; also called Chem. 10) [Ac-c[Cys-Pro-His-D-Cl-Phe-His-Trp-Cys]-Pro-Pro-D-Arg-Glu-Nle-D-Arg-D-Arg-NH2]
128	0.6	270	0.68	Ac-RCPH[dF]HWCPP[dR]E[Nle]R-NH2 (disulfide 2-8; SMILES CCCC[C@H](NC(=O)[C@H](CCC(=O)O)NC(=O)[C@@H](CCCNC(=N)N)NC(=O)[C@@H]1CCCN1C(=O)[C@@H]1CCCN1C(=O)[C@@H]1CSSC[C@H](NC(=O)[C@H](CCCNC(=N)N)NC(C)=O)C(=O)N2CCC[C@H]2C(=O)N[C@@H](Cc2c[nH]cn2)C(=O)N[C@H](Cc2ccccc2)C(=O)N[C@@H](Cc2c[nH]cn2)C(=O)N[C@@H](Cc2c[nH]c3ccccc23)C(=O)N1)C(=O)N[C@@H](CCCNC(=N)N)C(N)=O, Synthetic cyclic peptide; also called Chem. 8) [Ac-Arg-c[Cys-Pro-His-D-Phe-His-Trp-Cys]-Pro-Pro-D-Arg-Glu-Nle-Arg-NH2]
